How the values were obtained:
Experiment in all cases: EMSA
Conditions in all cases: EMSA: 0.5 uM dsDNA probe, semi-pure TF titrated, PBS + NP40, 10 uL; 6% polyacrylamide gel, 0.5x TBE, 100 V 1 h, room temperature running buffer; pH and …
[1] = tested on: BlaI_1845 (Clostridium thermocellum DSM 1313)
[2] = tested on: Rex_2471 (Clostridium thermocellum DSM 1313)
[3] = tested on: GntR_1482 (Clostridium thermocellum DSM 1313)
[4] = tested on: TetR_0692 (Clostridium thermocellum DSM 1313)
[5] = tested on: GlyR2 (Clostridium thermocellum DSM 1313)

“GACCATAACAATAGTCCAAGTTCATCT (double strand) [BlaI_1845 test oligo]” showed a binding signal (% probe shifted) [1] of over 70.
“CAGGATGTAATGGCTTGTCGTCAGACCGGAG (double strand) [Rex_2471 negative oligo]” showed a binding signal (% probe shifted) [2] of under 10.
Work on “TAATTGGATCTTTGTTAATTGCAGTTTT (double strand) [GntR_1482 negative oligo]” yielded a binding signal (% probe shifted) [3] of under 10.
Work on “TAAGCAGGGATATGACCACGTGGTCACCGTCCTCTG (double strand) [TetR_0692 test oligo]” yielded a binding signal (% probe shifted) [4] of over 70.
“TGATATGGGGTGTTTGCTGTTTTTGCC (double strand) [negative oligo 27 bp]” showed a binding signal (% probe shifted) [5] of under 10, a binding signal (% probe shifted) [4] of under 10 and a binding signal (% probe shifted) [1] of under 10.
With “ACCCCTGATTATGACAACATGACAGTAACAATCCGG (double strand) [GntR_1482 test oligo]” the binding signal (% probe shifted) [3] was over 70.
Work on “ATTATTTTATTTTGTTATATTTTTAACAAAAAAATTATT (double strand) [Rex_2471 test oligo]” yielded a binding signal (% probe shifted) [2] of over 70.
“TATAGCACCGGTAACATTACAAATCATAGAAT (double strand) [GlyR2 test oligo]” was tested, and the binding signal (% probe shifted) [5] was over 70.
